The values that follow come from article PMC10352137, “Readout of histone methylation by Trim24 locally restricts chromatin opening by p53” (Nature Structural & Molecular Biology, 2023).

For the experiment, the target named is T1, Flag-tagged TRIM24 N-terminal domain (amino acids 1-473) (mouse, UniProt Q64127 1-473).
T1 construct: TRIM24, mouse, N-terminal domain, amino acids 1-473; the recombinant constructs are numbered to residue 1051; also called amino-terminal region of the Trim24 protein; not shown: Flag, N-terminal, kept
T1 sequence (looked up): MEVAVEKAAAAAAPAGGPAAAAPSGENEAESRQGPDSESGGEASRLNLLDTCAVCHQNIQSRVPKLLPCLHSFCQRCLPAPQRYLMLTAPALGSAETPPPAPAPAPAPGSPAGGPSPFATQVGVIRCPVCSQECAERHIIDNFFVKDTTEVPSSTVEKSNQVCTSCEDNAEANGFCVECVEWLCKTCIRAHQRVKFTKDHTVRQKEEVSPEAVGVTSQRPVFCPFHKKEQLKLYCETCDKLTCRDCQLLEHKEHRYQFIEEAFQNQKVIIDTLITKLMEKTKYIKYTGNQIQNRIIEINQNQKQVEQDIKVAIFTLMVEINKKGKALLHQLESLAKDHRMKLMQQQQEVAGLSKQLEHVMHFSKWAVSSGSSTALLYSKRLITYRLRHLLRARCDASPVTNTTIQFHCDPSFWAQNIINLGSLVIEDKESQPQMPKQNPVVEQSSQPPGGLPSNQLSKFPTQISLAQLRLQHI
Nature of the experiment: pull-down; Flag-tagged TRIM24 domains (0.25 nmol) mixed with Strep-tagged p53 in equimolar ratios, anti-Flag or Strep-Tactin beads, 2 h at 4 °C, 50 mM HEPES pH 8.0, 150 mM NaCl; stained gel. As to conditions: both partners purified.

B1: Strep-tagged mouse full-length p53 (natural protein, UniProt P02340 1-390, looked up)
chain: MTAMEESQSDISLELPLSQETFSGLWKLLPPEDILPSPHCMDDLLLPQDVEEFFEGPSEALRVSGAPAAQDPVTETPGPVAPAPATPWPLSSFVPSQKTYQGNYGFHLGFLQSGTAKSVMCTYSPPLNKLFCQLAKTCPVQLWVSATPPAGSRVRAMAIYKKSQHMTEVVRRCPHHERCSDGDGLAPPQHLIRVEGNLYPEYLEDRQTFRHSVVVPYEPPEAGSEYTTIHYKYMCNSSCMGGMNRRPILTIITLEDSSGNLLGRDSFEVRVCACPGRDRRTEEENFRKKEVLCPELPPGSAKRALPTCTSASPPQKKKPLDGEYFTLKIRGRKRFEMFRELNEALELKDAHATEESGDSRAHSSYLKTKKGQSTSRHKKTMVKKVGPDSD
notes: p53, mouse, full length; also called purified p53; Strep-tagged p53 full-length protein; source: Sf9 (Bac-to-Bac), purified (Strep-Tactin, heparin ion exchange, Superose 6 SEC); not shown: Strep-tag, N-terminal, kept
B1: the binding result was “binds”.
